The target of assay [1] is T1, 85 kD protein association with type B PDGF receptor (Mus musculus, UniProt P26450).
T1 construct: Cytoplasmic cell lysates from density-arrested BALB/c 3T3 cells were mixed with the immobilized receptor; endogenous in cells; host or cells: BALB/c 3T3 cell lysate (85 kD protein); receptor made in Sf9 insect cells with recombinant baculovirus
Nature of the assay: In vitro association of 85 kD phosphoprotein with immobilized baculovirus-expressed PDGF receptor (in vitro kinase assay). The format is binding. Particulars: peptides (50 μM) preincubated with unstimulated 3T3 lysate, FIG. 4a.
Description: In in vitro experiments, the type B PDGF receptor was expressed in an insect cell expression system, partially purified, and immobilized using anti-receptor antibodies and protein A Sepharose. The receptor was allowed to autophosphorylate in vitro, so that it would be in a conformation that mimicked the ligand-activated state of the receptor. Cytoplasmic cell lysates from density-arrested BALB/c 3T3 cells were mixed with the immobilized receptor and the complexes were washed extensively. […] The receptor-associated phosphoproteins were detected by an in vitro kinase assay using ^32 P-ATP.
To determine the ability of a series of synthetic peptides derived from this sequence to block the interaction between the receptor and the 85 kD/PI3 kinase activity, 3T3 lysates were incubated with the different peptides prior to mixing with immobilized receptor. […] The other lanes show the proteins that associated with the receptor in the presence of derivatives of the Y719 peptide.
Infected cells were washed twice with cold PBS and lysed in 1 ml of lysis buffer (1% NP-40, 20 mM Tris (pH 8.0), 173 mM NaCl, 10% glycerol, 2 mM EDTA, 1 mM phenylmethylsulfonylfluoride (PMSF), aprotinin (0.15 U/ml), 20 μM leupeptin, 1 mM sodium orthovanadate) at 4° C. for 20 min with rocking. In most experiments (except where indicated in the legend of FIG. 3) the immunoprecipitated receptor was autophosphorylated in vitro by incubating the immune complexes in a buffer containing 20 mM Tris (pH 7.5), 20 mM MnCl, 100 μM ATP for 15 min at 25° C. Lysates were cleared of insoluble material by centrifugation at 13,000× g for 10 min. Lysates were incubated with receptor antibodies (1:500 dilution) for 4 h at 4° C. Receptor-antibody complexes were precipitated using Protein-A sepharose (Sigma) and washed consecutively with RIPA buffer (lysis buffer with 0.1% SDS), wash buffer 1 [0.5% NP-40, 0.5 M LiCl, 50 mM Tris (pH 7.4)] and with 10 mM Tris (pH 7.4). The PI3 kinase association assay was performed by incubating the immobilized receptor with BALB c/3T3 cell lysates for 3 hours at 4° C. The immune complexes were consecutively washed with cold PBS; 0.5% NP-40, 0.5 M LiCl and 51 50 mM Tris (pH 7.4).

Another assay concerns the target T2, 85 kD protein (Mus musculus, UniProt P26450).
T2 construct: Cytoplasmic cell lysates from density-arrested BALB/c 3T3 cells were mixed with the immobilized receptor; endogenous in cells; host or cells: BALB/c 3T3 cell lysate (85 kD protein); receptor made in Sf9 insect cells with recombinant baculovirus
Description: Receptor blot: 32P-labeled PDGF receptor probe binding to immobilized 85 kD protein. Particulars: 2.5 μM peptide, FIG. 7. From the text: FIG. 7 illustrates the association of soluble radiolabeled receptor with immobilized 85 kD protein ("receptor blot"). Baculovirus-expressed PDGF receptors were immunoprecipitated using receptor antibodies and the receptor was ^32 P-labeled in vitro by autophosphorylation. The solubilized radiolabeled receptor was used to probe nitrocellulose filters containing SDS-polyacrylamide gel-fractionated lysates from control (lanes 1, 3, 4 and 5) or PDGF stimulated (lane 2) cells. In the peptide competition experiments (lane 3, 4, and 5) the peptides were added to the nitrocellulose paper along with the radiolabeled receptor probe. The arrow indicates the position of the 85 kD protein.
To determine the nature of the interaction of the receptor with the 85 kD protein, a modification of Western blotting methodology was used. PDGF receptor from Sf9 cells infected with PDGF receptor baculovirus was immuno precipitated with receptor antibodies, labeled with ^32 P in vitro, and used as a probe to bind proteins from 3T3 cell lysates that had been separated electrophoretically and transferred to nitrocellulose. The radiolabeled PDGF receptor bound directly to an 85 kDa protein in unstimulated 3T3 cell lysate (FIG. 7, lane 1). […] The direct binding interaction appears to involve the 20 amino acid segment in the kinase insert region containing tyrosine 719, and tyrosine phosphorylation of this segment appears to be necessary for the interaction.
Cell lysate proteins transferred to nitrocellulose membranes were analyzed for their ability to bind directly to the PDGF receptor by probing the nitrocellulose membrane with ^32 P-labeled PDGF receptor. To prepare the radiolabeled receptor probe, baculovirus-expressed receptor was immunoprecipitated from 10^6 Sf9 cells. The immune complexes were washed and labeled by autophosphorylation as described above. Labeled receptor was solubilized from the immunoprecipitates by repeated incubation of the immunoprecipitate in solubilization buffer (0.4% SDS, 100 mM NaCl, 2 mM EDTA, 2 mM β-mercaptoethanol, and 50 mM triethanolamine, pH 7.4) at 100° C. for 2 min. […]

The target of assay [2] is T3, PI3 kinase association with type B PDGF receptor (Mus musculus, UniProt P26450).
T3 construct: Cytoplasmic cell lysates from density-arrested BALB/c 3T3 cells were mixed with the immobilized receptor; endogenous in cells; host or cells: BALB/c 3T3 cell lysate (85 kD protein); receptor made in Sf9 insect cells with recombinant baculovirus
Description: In vitro association of PI3 kinase activity with immobilized baculovirus-expressed PDGF receptor. The assay is classed as binding. The following applies: for Blocking of association of PI3 kinase activity with the receptor: peptides (50 μM) preincubated with unstimulated 3T3 lysate, FIG. 4b. From the text:
An in vitro system was used to study the interaction of PDGF receptors and PI3 kinase. […] These phosphoproteins include the 85 kDa protein and a 110 kDa protein that have recently been correlated with PI3 kinase activity. In in vitro experiments, the type B PDGF receptor was expressed in an insect cell expression system, partially purified, and immobilized using anti-receptor antibodies and protein A Sepharose. The receptor was allowed to autophosphorylate in vitro, so that it would be in a conformation that mimicked the ligand-activated state of the receptor. Cytoplasmic cell lysates from density-arrested BALB/c 3T3 cells were mixed with the immobilized receptor and the complexes were washed extensively. PI3 kinase activity was found in the complex of proteins associated with the receptor (FIG. 1d). The receptor-associated phosphoproteins were detected by an in vitro kinase assay using ^32 P-ATP. At least four receptor-associated proteins with apparent molecular weights of 140 kD, 120/110 kD (sometimes a doublet), 85 kD and 74 kD were radiolabeled (the bands at 160 kD and 150 kD are the baculovirus-expressed receptor and its precursor, respectively). The 140 kD band has been previously identified as […] and the band at 74 kD includes the raf-1 kinase and probably another molecule as well. The 85 kD protein co-migrated with the 85 kD band, previously considered to be PI3 kinase, in anti-phosphotyrosine immunoprecipitates of cell lysates prepared from PDGF-stimulated cells. The association of 85 and 110 kD proteins with the baculovirus-expressed receptor was also observed by silver stain analysis.
To determine the ability of a series of synthetic peptides derived from this sequence to block the interaction between the receptor and the 85 kD/PI3 kinase activity, 3T3 lysates were incubated with the different peptides prior to mixing with immobilized receptor. […] The arrow indicates the position of the 85 kD protein that co-purified with the PI3 kinase activity. […]

The target in assay [3] is T4, transfected type B human receptor (Homo sapiens, UniProt P09619).
T4 construct: expressed in transfected cells; host or cells: CHO (clone CHO-HR5), plasmid pSVRH5
Nature of the assay: Competitive binding of PDGF forms against 125I-PDGF on CHO transfectants (CHO-HR5). On the procedure: Binding was carried out at 37° C. for 45 min in whole cell suspension.

In the next assay the test system is native mouse receptor. Description: Competitive binding of PDGF forms against 125I-PDGF on BALB/c 3T3 cells. Particulars: mouse 3T3 cells, yeast-expressed homodimers. From the text: The ability of the human recombinant AA and BB homodimers to compete for the type B receptor sites and displace ^125 I-labeled PDGF (prepared as described below) was studied. Each homodimer was produced selectively by a yeast expression system and was purified from yeast media that is devoid of other mesenchymal cell growth factors, thus avoiding the artifact of contamination by factors that might be present in mammalian expression systems.
BALB/c 3T3 cells and CHO transfectants (CHO-HR5) were incubated with ^125 I-PDGF in the presence of increasing concentrations of AA or BB. Binding was carried out at 37° C. for 45 min in whole cell suspension. Unbound, radiolabeled PDGF was removed by centrifugation on a Ficoll gradient Non-specific binding, determined by incubating CHO cells with ^125 I-PDGF, accounted for 25 percent of the bound radioactivity.

Assay [4] addresses T5, type B receptor tyrosine kinase (Homo sapiens, UniProt P09619).
T5 construct: expressed in transfected cells; host or cells: CHO (clone CHO-HR5), plasmid pSVRH5
Description: Activation of PDGF receptor tyrosine kinase (autophosphorylation, anti-phosphotyrosine Western blot) in CHO-HR5. The format is cell-based. The following applies: transfected human receptor. From the text:
Following polyacrylamide-SDS electrophoresis, the phosphorylated receptor was identified by Western blot using an anti-phosphotyrosine antibody.
Background: Immunoblotting shows a protein as a band on a membrane.

Entries after “also recorded” stand apart in the source; their conditions may differ. Square brackets hold non-standard residues; d marks the D form. Ends that are not written are not given here. Peptide text beside a SMILES is read from it. pY = N[C@@H](Cc1ccc(OP(=O)(O)O)cc1)C(=O)O

T1 sequence (P26450 whole entry): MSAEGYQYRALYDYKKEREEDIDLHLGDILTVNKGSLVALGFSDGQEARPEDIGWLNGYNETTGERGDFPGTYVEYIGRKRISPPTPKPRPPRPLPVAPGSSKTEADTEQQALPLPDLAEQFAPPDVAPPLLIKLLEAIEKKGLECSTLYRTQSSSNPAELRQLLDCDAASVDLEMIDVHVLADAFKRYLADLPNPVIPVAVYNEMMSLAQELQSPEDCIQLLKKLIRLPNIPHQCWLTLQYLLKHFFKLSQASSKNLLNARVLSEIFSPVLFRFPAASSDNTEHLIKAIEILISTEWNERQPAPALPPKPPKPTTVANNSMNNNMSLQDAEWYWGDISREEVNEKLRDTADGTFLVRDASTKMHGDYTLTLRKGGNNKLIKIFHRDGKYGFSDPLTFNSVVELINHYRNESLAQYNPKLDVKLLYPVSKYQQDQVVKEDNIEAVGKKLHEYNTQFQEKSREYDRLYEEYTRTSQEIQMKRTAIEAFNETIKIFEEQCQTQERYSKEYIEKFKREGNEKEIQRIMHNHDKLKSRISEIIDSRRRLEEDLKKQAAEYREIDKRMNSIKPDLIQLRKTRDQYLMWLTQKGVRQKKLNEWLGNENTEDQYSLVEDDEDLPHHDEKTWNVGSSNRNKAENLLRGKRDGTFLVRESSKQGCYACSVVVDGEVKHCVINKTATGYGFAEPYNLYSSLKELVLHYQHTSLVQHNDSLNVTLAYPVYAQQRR
T1 sequence (P42337 whole entry partner): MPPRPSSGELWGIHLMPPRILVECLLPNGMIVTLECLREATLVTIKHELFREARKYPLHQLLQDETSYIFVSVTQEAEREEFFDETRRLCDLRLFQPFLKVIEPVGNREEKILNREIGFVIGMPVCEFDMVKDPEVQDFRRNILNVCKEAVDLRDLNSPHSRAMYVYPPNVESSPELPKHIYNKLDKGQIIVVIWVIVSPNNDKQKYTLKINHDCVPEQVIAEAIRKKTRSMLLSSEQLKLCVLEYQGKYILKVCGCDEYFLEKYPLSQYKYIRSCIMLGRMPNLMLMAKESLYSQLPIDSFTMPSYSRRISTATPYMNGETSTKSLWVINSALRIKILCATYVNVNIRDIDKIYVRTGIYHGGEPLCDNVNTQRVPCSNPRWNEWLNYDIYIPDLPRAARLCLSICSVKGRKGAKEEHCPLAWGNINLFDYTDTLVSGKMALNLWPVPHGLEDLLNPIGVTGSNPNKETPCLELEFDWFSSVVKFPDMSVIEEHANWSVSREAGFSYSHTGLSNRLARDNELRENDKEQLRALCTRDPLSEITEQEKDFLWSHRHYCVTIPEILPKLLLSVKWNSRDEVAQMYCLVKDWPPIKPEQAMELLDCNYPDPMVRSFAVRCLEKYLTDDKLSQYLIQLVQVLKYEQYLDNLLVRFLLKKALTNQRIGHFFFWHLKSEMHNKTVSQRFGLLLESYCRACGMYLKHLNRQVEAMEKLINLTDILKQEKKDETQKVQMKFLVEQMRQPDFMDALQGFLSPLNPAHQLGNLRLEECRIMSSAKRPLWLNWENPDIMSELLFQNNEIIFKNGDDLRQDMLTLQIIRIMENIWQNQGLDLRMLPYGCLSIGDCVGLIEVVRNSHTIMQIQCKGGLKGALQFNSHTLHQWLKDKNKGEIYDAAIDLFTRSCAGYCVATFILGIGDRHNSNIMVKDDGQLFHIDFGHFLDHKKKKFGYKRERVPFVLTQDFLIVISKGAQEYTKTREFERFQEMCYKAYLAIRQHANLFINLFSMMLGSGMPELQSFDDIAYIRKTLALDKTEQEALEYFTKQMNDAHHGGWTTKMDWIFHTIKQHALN
T2 sequence (P26450 whole entry): as the sequence (P26450 whole entry) above
T2 sequence (P42337 whole entry partner): as the sequence (P42337 whole entry partner) above
T3 sequence (P26450 whole entry): as the sequence (P26450 whole entry) above
T3 sequence (P42337 whole entry partner): as the sequence (P42337 whole entry partner) above
T5 sequence (P09619 33-1106): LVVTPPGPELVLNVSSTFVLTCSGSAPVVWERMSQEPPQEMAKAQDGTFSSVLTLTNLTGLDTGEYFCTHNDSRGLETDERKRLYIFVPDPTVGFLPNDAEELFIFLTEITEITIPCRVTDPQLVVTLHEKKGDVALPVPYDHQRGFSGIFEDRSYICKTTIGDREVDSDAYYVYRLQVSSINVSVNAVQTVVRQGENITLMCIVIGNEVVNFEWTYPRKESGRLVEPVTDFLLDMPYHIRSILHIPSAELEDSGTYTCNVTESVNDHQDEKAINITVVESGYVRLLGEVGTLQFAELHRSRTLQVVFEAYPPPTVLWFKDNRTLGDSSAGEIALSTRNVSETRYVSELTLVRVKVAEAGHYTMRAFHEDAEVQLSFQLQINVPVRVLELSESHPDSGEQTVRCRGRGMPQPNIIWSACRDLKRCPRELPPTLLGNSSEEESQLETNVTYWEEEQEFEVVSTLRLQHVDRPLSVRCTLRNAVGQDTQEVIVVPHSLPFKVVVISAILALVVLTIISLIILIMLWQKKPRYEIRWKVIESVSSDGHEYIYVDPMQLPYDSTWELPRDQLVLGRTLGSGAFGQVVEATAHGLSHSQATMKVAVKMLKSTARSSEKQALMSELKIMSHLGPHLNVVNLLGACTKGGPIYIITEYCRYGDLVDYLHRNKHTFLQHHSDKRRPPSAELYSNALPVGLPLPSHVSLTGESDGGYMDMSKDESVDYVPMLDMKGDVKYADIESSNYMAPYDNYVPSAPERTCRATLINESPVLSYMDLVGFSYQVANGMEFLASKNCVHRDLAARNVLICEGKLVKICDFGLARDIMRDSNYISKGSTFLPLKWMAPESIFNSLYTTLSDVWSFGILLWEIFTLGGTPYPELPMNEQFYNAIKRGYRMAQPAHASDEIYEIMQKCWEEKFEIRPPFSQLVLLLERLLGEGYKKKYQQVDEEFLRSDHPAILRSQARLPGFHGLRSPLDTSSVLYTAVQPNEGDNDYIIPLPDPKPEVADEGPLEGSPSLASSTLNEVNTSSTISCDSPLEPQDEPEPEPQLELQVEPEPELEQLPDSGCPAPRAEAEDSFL
T4 sequence (P09619 33-1106): as above

With `CC[C@H](C)[C@H](NC(=O)[C@H](CO)NC(=O)[C@H](CCC(=O)O)NC(=O)[C@H](CC(=O)O)NC(=O)[C@H](CCCCN)NC(=O)[C@H](CO)NC(=O)[C@H](CCSC)NC(=O)[C@H](CC(=O)O)NC(=O)[C@H](CCSC)NC(=O)[C@H](Cc1ccc(OP(=O)(O)O)cc1)NC(=O)CNC(=O)CN)C(=O)N[C@@H](CC(=O)O)C(=O)O` [Y708P short], the “Blocking of binding of the 85 kD phosphoprotein to the receptor” value (from here on “Blocking of binding … to the receptor”) in assay [1] is listed as “had blocking activity”.
In the case of `CC[C@H](C)[C@H](NC(=O)[C@H](CO)NC(=O)[C@H](CCC(=O)O)NC(=O)[C@H](CC(=O)O)NC(=O)[C@H](CCCCN)NC(=O)[C@H](CO)NC(=O)[C@H](CCSC)NC(=O)[C@H](CC(=O)O)NC(=O)[C@H](CCSC)NC(=O)[C@H](Cc1ccc(OP(=O)(O)O)cc1)NC(=O)CNC(=O)CN)C(=O)N[C@@H](CC(=O)O)C(=O)N[C@@H](Cc1ccc(OP(=O)(O)O)cc1)C(=O)N[C@H](C(=O)N1CCC[C@H]1C(=O)N[C@@H](CCSC)C(=O)N[C@@H](CC(C)C)C(=O)N[C@@H](CC(=O)O)C(=O)N[C@@H](CCSC)C(=O)O)C(C)C` [Y708P/Y719P], in assay [1], the “Blocking of binding … to the receptor” value is “blocked binding of the 85 kD protein”.
With `CC[C@H](C)[C@H](NC(=O)[C@H](CO)NC(=O)[C@H](CCC(=O)O)NC(=O)[C@H](CC(=O)O)NC(=O)[C@H](CCCCN)NC(=O)[C@H](CO)NC(=O)[C@H](CCSC)NC(=O)[C@H](CC(=O)O)NC(=O)[C@H](CCSC)NC(=O)[C@H](Cc1ccc(O)cc1)NC(=O)CNC(=O)CN)C(=O)N[C@@H](CC(=O)O)C(=O)N[C@@H](Cc1ccc(OP(=O)(O)O)cc1)C(=O)N[C@H](C(=O)N1CCC[C@H]1C(=O)N[C@@H](CCSC)C(=O)N[C@@H](CC(C)C)C(=O)N[C@@H](CC(=O)O)C(=O)N[C@@H](CCSC)C(=O)O)C(C)C` [Y719P], the “Effect on association of radiolabeled receptor with immobilized 85 kD protein (receptor blot)” value (“Effect on association” for short) on 85 kD protein is on record as “failed to associate with the 85 kD protein”. The “Blocking of binding … to the receptor” value in assay [1] is on record as “blocked the binding of the 85 kD phosphoprotein”. Besides, the IC50 in assay [2] is around 5 µM.
On to `CC[C@H](C)[C@H](NC(=O)[C@H](CO)NC(=O)[C@H](CCC(=O)O)NC(=O)[C@H](CC(=O)O)NC(=O)[C@H](CCCCN)NC(=O)[C@H](CO)NC(=O)[C@H](CCSC)NC(=O)[C@H](CC(=O)O)NC(=O)[C@H](CCSC)NC(=O)[C@H](Cc1ccc(O)cc1)NC(=O)CNC(=O)CN)C(=O)N[C@@H](CC(=O)O)C(=O)N[C@@H](Cc1ccc(O)cc1)C(=O)N[C@H](C(=O)N1CCC[C@H]1C(=O)N[C@@H](CCSC)C(=O)N[C@@H](CC(C)C)C(=O)N[C@@H](CC(=O)O)C(=O)N[C@@H](CCSC)C(=O)O)C(C)C` [Y719] (H-GGYMDMSKDESIDYVPMLDM-OH), for which the “Effect on association” value on 85 kD protein is recorded as “did not interfere with the association of the receptor with the 85 kD protein”. Moreover, the “Blocking of binding … to the receptor” value in assay [1] was “No change in the pattern of receptor-associated protein”.
For “AA: Human recombinant AA homodimer of PDGF produced by a yeast expression system”, the “Relative affinity for the transfected type B human receptor” value in assay [3] (CHO-HR5, yeast-expressed homodimers) was “lower affinity than the BB form”. In addition, the “Competition for 125I-PDGF labeled sites” value in assay [3] (human receptor transfectants, 37° C., 45 min) is “competed”. Further, the “Relative affinity for the native mouse receptor” value in the assay on native mouse receptor is given as “lower affinity than the BB form”. Further, in assay [4], the “Activation of type B receptor tyrosine kinase (autophosphorylation)” value is on record as “stimulated autophosphorylation of the transfected human receptor; also recorded: activates the receptor tyrosine kinase of the type B receptor”.
On to “AB: Human partially purified platelet-derived AB PDGF heterodimer”, for which, in assay [4], the “Activation of type B receptor tyrosine kinase (autophosphorylation)” value is “stimulated autophosphorylation of the transfected human receptor”.
As for “MDMSKDESIDYVPMLDM (MDMSKDESID[pY]VPMLDM) [Y719P short]”, the “Blocking of binding … to the receptor” value in assay [1] is “blocked binding of the 85 kD protein; also recorded: had blocking activity”. Further, the “Blocking of association of PI3 kinase activity with the receptor” value in assay [2] is recorded as “inhibited the association of PI3 kinase activity with the receptor”.
With “MMDIKVPMDEYMSDYSDLGG (MMDIKVPMDE[pY]MSDYSDLGG; not fully specified; printed as MMDIKVPMDE*YMSDYSDLGG) [Y719P scrambled]”, in the assay with 85 kD protein, the “Effect on association” value is on record as “did not interfere with the association of the receptor with the 85 kD protein”. In addition, in assay [1], the “Blocking of binding … to the receptor” value is “failed to block binding of the 85 kD protein”. In addition, in assay [2], the “Blocking of association of PI3 kinase activity with the receptor” value is given as “did not prevent the association of PI3 kinase activity with the receptor”.

As usually defined, the IC50 is the concentration that inhibits the measured activity by half. Low values mean higher potency, high ones lower potency.

For the origin of these results see US6043211A, “Method for inhibiting the activity of a platelet-derived growth factor receptor binding protein” (The Regents of the University of California, priority 1995, dated 2000).
